Assay results from paper PMC6528793 (Structure (London, England : 1993), 2017).

B1: AnkB C-terminal ankyrin domain (residues 54-168) (domain or fragment)
chain: HIKRELWGNLMVAARSNNLEEVKKILKKGIDPTQTNSYHLNRTPLLAAIEGKAYQTANYLWRKYTFDPNFKDNYGDSPISLLKKQLANPAFKDKEKKQIRALIRGMQEEKIAQSK

Key:
[1] = target: B1; test: NMR titration
crystal structure = target: the molecule itself; test: crystal structure

Binder: QEEKI [QEEKI pentapeptide derived from the AnkB C-terminus]
- Kd [1]: > 8 mM

Binder: B1
- binding result (crystal structure): binds
